Test results taken from the supplement of paper PMC11316812.
± gives the standard deviation of the averaged measurements.

How the values were obtained:
MCF7 = experiment: percentage of EdU-negative (G0-arrested) nuclei per well, 72 h; higher = more G0 arrest; conditions: reference: sequence is the full UniProt precursor, the tested protein was the secreted form or ectodomain
hTERT-HMEC = experiment: as above; conditions: reference: sequence is the full UniProt precursor, the tested protein was the secreted form or ectodomain
[1] = protein concentration 0.00825 µM
[2] = protein concentration 0.0825 µM
[3] = protein concentration 0.0225 µM
[4] = protein concentration 0.012845 µM
[5] = protein concentration 0.12845 µM
[6] = protein concentration 0.0357143 µM
[7] = protein concentration 0.357143 µM
[8] = protein concentration 0.03125 µM
[9] = protein concentration 0.3125 µM
[10] = protein concentration 0.0257143 µM
[11] = protein concentration 0.257143 µM
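Further: secreted proteins added to cultured cells, EdU pulse at the end, nuclei found by Hoechst imaging, EdU status from nuclear versus surrounding ring intensity ratio, PBS as neutral control.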

Sequence: MKQKMMARLLRTSFALLFLGLFGVLGAATISCRNEEGKAVDWFTFYKLPKRQNKESGETGLEYLYLDSTTRSWRKSEQLMNDTKSVLGRTLQQLYEAYASKSNNTAYLIYNDGVPKPVNYSRKYGHTKGLLLWNRVQGFWLIHSIPQFPPIPEEGYDYPPTGRRNGQSGICITFKYNQYEAIDSQLLVCNPNVYSCSIPATFHQELIHMPQLCTRASSSEIPGRLLTTLQSAQGQKFLHFAKSDSFLDDIFAAWMAQRLKTHLLTETWQRKRQELPSNCSLPYHVYNIKAIKLSRHSYFSSYQDHAKWCISQKGTKNRWTCIGDLNRSPHQAFRSGGFICTQNWQIYQAFQGLVLYYESCK [Q8WZ79]
- percentage of EdU-negative (MCF7; [1]): 28.9 ± 1.8%
- percentage of EdU-negative (MCF7; [2]): 32.3 ± 0.53%
- percentage of EdU-negative (hTERT-HMEC; [1]): 5.48 ± 0.48%
- percentage of EdU-negative (hTERT-HMEC; [2]): 15.5 ± 1.6%

Sequence: MKRLVCVLLVCSSAVAQLHKDPTLDHHWHLWKKTYGKQYKEKNEEAVRRLIWEKNLKFVMLHNLEHSMGMHSYDLGMNHLGDMTSEEVMSLMSSLRVPSQWQRNITYKSNPNRILPDSVDWREKGCVTEVKYQGSCGACWAFSAVGALEAQLKLKTGKLVSLSAQNLVDCSTEKYGNKGCNGGFMTTAFQYIIDNKGIDSDASYPYKAMDQKCQYDSKYRAATCSKYTELPYGREDVLKEAVANKGPVSVGVDARHPSFFLYRSGVYYEPSCTQNVNHGVLVVGYGDLNGKEYWLVKNSWGHNFGEEGYIRMARNKGNHCGIASFPSYPEI
- percentage of EdU-negative (MCF7; [3]): 25.8 ± 0.69%
- percentage of EdU-negative (MCF7; protein concentration 0.225 µM): 28.92 ± 0.25%
- percentage of EdU-negative (hTERT-HMEC; [3]): 4.72 ± 0.47%
- percentage of EdU-negative (hTERT-HMEC; protein concentration 0.225 µM): 9.97 ± 2.1%

Sequence: MKRSVAVWLLVGLSLGVPQFGKGDICDPNPCENGGICLPGLADGSFSCECPDGFTDPNCSSVVEVASDEEEPTSAGPCTPNPCHNGGTCEISEAYRGDTFIGYVCKCPRGFNGIHCQHNINECEVEPCKNGGICTDLVANYSCECPGEFMGRNCQYKCSGPLGIEGGIISNQQITASSTHRALFGLQKWYPYYARLNKKGLINAWTAAENDRWPWIQINLQRKMRVTGVITQGAKRIGSPEYIKSYKIAYSNDGKTWAMYKVKGTNEDMVFRGNIDNNTPYANSFTPPIKAQYVRLYPQVCRRHCTLRMELLGCELSGCSEPLGMKSGHIQDYQITASSIFRTLNMDMFTWEPRKARLDKQGKVNAWTSGHNDQSQWLQVDLLVPTKVTGIITQGAKDFGHVQFVGSYKLAYSNDGEHWTVYQDEKQRKDKVFQGNFDNDTHRKNVIDPPIYARHIRILPWSWYGRITLRSELLGCTEEE
- percentage of EdU-negative (MCF7; [4]): 25.7 ± 1.6%
- percentage of EdU-negative (MCF7; [5]): 30.6 ± 1.9%
- percentage of EdU-negative (hTERT-HMEC; [4]): 4.79 ± 0.32%
- percentage of EdU-negative (hTERT-HMEC; [5]): 47.8 ± 1.9%

Sequence: MKRVLVLLLAVAFGHALERGRDYEKNKVCKEFSHLGKEDFTSLSLVLYSRKFPSGTFEQVSQLVKEVVSLTEACCAEGADPDCYDTRTSALSAKSCESNSPFPVHPGTAECCTKEGLERKLCMAALKHQPQEFPTYVEPTNDEICEAFRKDPKEYANQFMWEYSTNYGQAPLSLLVSYTKSYLSMVGSCCTSASPTVCFLKERLQLKHLSLLTTLSNRVCSQYAAYGEKKSRLSNLIKLAQKVPTADLEDVLPLAEDITNILSKCCESASEDCMAKELPEHTVKLCDNLSTKNSKFEDCCQEKTAMDVFVCTYFMPAAQLPELPDVELPTNKDVCDPGNTKVMDKYTFELSRRTHLPEVFLSKVLEPTLKSLGECCDVEDSTTCFNAKGPLLKKELSSFIDKGQELCADYSENTFTEYKKKLAERLKAKLPDATPTELAKLVNKHSDFASNCCSINSPPLYCDSEIDAELKNIL
- percentage of EdU-negative (MCF7; [6]): 25.9 ± 0.66%
- percentage of EdU-negative (MCF7; [7]): 27.2 ± 1.1%
- percentage of EdU-negative (hTERT-HMEC; [6]): 6.02 ± 1.8%
- percentage of EdU-negative (hTERT-HMEC; [7]): 16.1 ± 0.49%

Sequence: MKSFLLVVNALALTLPFLAVEVQNQKQPACHENDERPFYQKTAPYVPMYYVPNSYPYYGTNLYQRRPAIAINNPYVPRTYYANPAVVRPHAQIPQRQYLPNSHPPTVVRRPNLHPSFIAIPPKKIQDKIIIPTINTIATVEPTPAPATEPTVDSVVTPEAFSESIITSTPETTTVAVTPPTA
- percentage of EdU-negative (MCF7; protein concentration 0.01 µM): 24.6 ± 1.5%
- percentage of EdU-negative (MCF7; protein concentration 0.1 µM): 25.6 ± 1.9%
- percentage of EdU-negative (hTERT-HMEC; protein concentration 0.01 µM): 5.78 ± 0.51%
- percentage of EdU-negative (hTERT-HMEC; protein concentration 0.1 µM): 5.65 ± 0.83%

Sequence: MKSGLWYFFLFCLRIKVLTGEINGSANYEMFIFHNGGVQILCKYPDIVQQFKMQLLKGGQILCDLTKTKGSGNTVSIKSLKFCHSQLSNNSVSFFLYNLDHSHANYYFCNLSIFDPPPFKVTLTGGYLHIYESQLCCQLKFWLPIGCAAFVVVCILGCILICWLTKKKYSSSVHDPNGEYMFMRAVNTAKKSRLTDVTL [Q9Y6W8]
- percentage of EdU-negative (MCF7; [8]): 25.2 ± 1.7%
- percentage of EdU-negative (MCF7; [9]): 25.9 ± 0.78%
- percentage of EdU-negative (hTERT-HMEC; [8]): 4.29 ± 0.34%
- percentage of EdU-negative (hTERT-HMEC; [9]): 4.32 ± 0.26%

Sequence: MKSLTWILGLWALAACFTPGESQRGPRGPYPPGPLAPPPPPCFPFGTGFVPPPHPPPYGPGRFPPPLSPPYGPGRIPPSPPPPYGPGRIQSHSLPPPYGPGYPQPPSQPRPYPPGPPFFPVNSPTDPALPTPAP
- percentage of EdU-negative (MCF7; [10]): 22.6 ± 1%
- percentage of EdU-negative (MCF7; [11]): 26.45 ± 0.12%
- percentage of EdU-negative (hTERT-HMEC; [10]): 5.63 ± 1.3%
- percentage of EdU-negative (hTERT-HMEC; [11]): 7.43 ± 0.82%

Sequence: MKSLTWILGLWALAACFTPGESQRGPRGPYPPGPLAPPQPFGPGFVPPPPPPPYGPGRIPPPPPAPYGPGIFPPPPPQP
- percentage of EdU-negative (MCF7; [10]): 26.1 ± 0.69%
- percentage of EdU-negative (MCF7; [11]): 29.6 ± 2.1%
- percentage of EdU-negative (hTERT-HMEC; [10]): 5.18 ± 0.72%
- percentage of EdU-negative (hTERT-HMEC; [11]): 6.25 ± 0.39%
